Results on 56 variants are retold here after the RNAGym collection of RNA variant scans (doi:10.7554/elife.90254).

The labels stand for the following.
B1: LINE1-mini (parent)
chain: GGCAGAGCUCAACACAGCGUGGCAAAGUGGCUGUGGCUAGACUGCC

Variants of B1 are the subject of the series. The series is described as follows: self-cleavage, relative activity (ratio to wild type); higher = more cleavage; in vitro, sequencing; the parent is a self-cleaving ribozyme.
Regarding GGCAGAGCUCAACCCAGUGUGGCAAAGUGGCUGUGGCUAGACUGCC [A14C C18U], the self-cleavage turned out to be 0.07.

For the variant GGCAGAGCUCAACCCAGAGUGGCAAAGUGGCUGUGGCUAGACUGCC [A14C C18A], the self-cleavage was found to be 0.05.

For the variant GGCAGAGCUCAAUACAGCGUGGCAAAGUGGCUGUGGCUAGACCGCC [C13U U43C], the self-cleavage came to 0.1.

On to GGCAGAGCUCAAUACAGCGUGGCAAAGUGGCUGUGGCUAGACGGCC [C13U U43G], for which the self-cleavage was 2.25.

In the case of GGCAGAGCUCAAUACAGCGUGGCAAAGUGGCUGUGGCUAGACAGCC [C13U U43A], the self-cleavage came out at 0.1.

Consider GGCAGAGCUCAACCCAGCGUGGCAAAGUGGCUCUGGCUAGACUGCC [A14C G33C], for which the self-cleavage turned out to be 0.03.

In the case of GGCAGAGCUCAACCCAGCGUGGCAAAGUGGCUAUGGCUAGACUGCC [A14C G33A], the self-cleavage came to 0.06.

Regarding GGCAGAGCUCAACCCAGCGUGGCAAAGUGGCUUUGGCUAGACUGCC [A14C G33U], the self-cleavage was found to be 0.05.

For the variant GGCAGAGCUCAACCCAGCGUGGCAAAGUGGCUGUGGCUAGUCUGCC [A14C A41U], the self-cleavage worked out at 0.06.

As to GGCAGAGCUCAACCCAGCGUGGCAAAGUGGCUGUGGCUAGGCUGCC [A14C A41G], the self-cleavage came out at 0.05.

Turning to GGCAGAGCUCAACCCAGCGUGGCAAAGUGGCUGUGGCUAGCCUGCC [A14C A41C], the self-cleavage worked out at 0.04.

Turning to GGCAGAGCUCAAUACAGCGUGGCAAAGUGGCGGUGGCUAGACUGCC [C13U U32G], the self-cleavage was 0.21.

GGCAGAGCUCAAUACAGCGUGGCAAAGUGGCCGUGGCUAGACUGCC [C13U U32C]: the self-cleavage turned out to be 0.08.

As for GGCAGAGCUCAAUACAGCGUGGCAAAGUGGCAGUGGCUAGACUGCC [C13U U32A], the self-cleavage was 0.11.

For the variant GGCAGAGCUCAACCCUGCGUGGCAAAGUGGCUGUGGCUAGACUGCC [A14C A16U], the self-cleavage worked out at 0.12.

As for GGCAGAGCUCAACCCGGCGUGGCAAAGUGGCUGUGGCUAGACUGCC [A14C A16G], the self-cleavage turned out to be 0.1.

In the case of GGCAGAGCUCAACCCCGCGUGGCAAAGUGGCUGUGGCUAGACUGCC [A14C A16C], the self-cleavage stood at 0.08.

In the case of GGCAGAGCUCAACCCAGCGUGGCAAAGUGGCUGUUGCUAGACUGCC [A14C G35U], the self-cleavage came to 0.07.

Regarding GGCAGAGCUCAACCCAGCGUGGCAAAGUGGCUGUAGCUAGACUGCC [A14C G35A], the self-cleavage worked out at 0.09.

With GGCAGAGCUCAACCCAGCGUGGCAAAGUGGCUGUCGCUAGACUGCC [A14C G35C], the self-cleavage came out at 0.04.

As to GGCAGAGCUCAACCCAGCGUGGCAAAGUGGCUGUGGAUAGACUGCC [A14C C37A], the self-cleavage came to 0.08.

GGCAGAGCUCAACCCAGCGUGGCAAAGUGGCUGUGGGUAGACUGCC [A14C C37G]: the self-cleavage was found to be 0.11.

As to GGCAGAGCUCAACCCAGCGUGGCAAAGUGGCUGUGGUUAGACUGCC [A14C C37U], the self-cleavage was 0.02.

Regarding GGCAGAGCUCAACCCAGCGUGGCAAAGUGGCAGUGGCUAGACUGCC [A14C U32A], the self-cleavage turned out to be 0.07.

As for GGCAGAGCUCAACCCAGCGUGGCAAAGUGGCCGUGGCUAGACUGCC [A14C U32C], the self-cleavage was 0.08.

In the case of GGCAGAGCUCAACCCAGCGUGGCAAAGUGGCGGUGGCUAGACUGCC [A14C U32G], the self-cleavage came to 0.07.

As for GGCAGAGCUCAACCGAGCGUGGCAAAGUGGCUGUGGCUAGACUGCC [A14C C15G], the self-cleavage came out at 0.02.

Turning to GGCAGAGCUCAACCUAGCGUGGCAAAGUGGCUGUGGCUAGACUGCC [A14C C15U], the self-cleavage was found to be 0.07.

Take GGCAGAGCUCAACCAAGCGUGGCAAAGUGGCUGUGGCUAGACUGCC [A14C C15A]: the self-cleavage stood at 0.08.

Regarding GGCAGAGCUCAACCCAGCGUGGCAAAGUGGCUGUGGCUAGAUUGCC [A14C C42U], the self-cleavage is 0.07.

GGCAGAGCUCAACCCAGCGUGGCAAAGUGGCUGUGGCUAGAGUGCC [A14C C42G]: the self-cleavage is 0.07.

Take GGCAGAGCUCAACCCAGCGUGGCAAAGUGGCUGUGGCUAGAAUGCC [A14C C42A]: the self-cleavage stood at 0.07.

On to GGCAGAGCUCAACCCAGCGUGGCACAGUGGCUGUGGCUAGACUGCC [A14C A25C], for which the self-cleavage is 0.07.

For the variant GGCAGAGCUCAACCCAGCGUGGCAUAGUGGCUGUGGCUAGACUGCC [A14C A25U], the self-cleavage is 0.09.

Take GGCAGAGCUCAACCCAGCGUGGCAGAGUGGCUGUGGCUAGACUGCC [A14C A25G]: the self-cleavage turned out to be 0.07.

As to GGCAGAGCUCAACCCAGCGUGGCAAAGUGGCUGUGGCUAGACUGGC [A14C C45G], the self-cleavage amounted to 0.11.

For the variant GGCAGAGCUCAACCCAGCGUGGCAAAGUGGCUGUGGCUAGACUGUC [A14C C45U], the self-cleavage was determined as 0.08.

Turning to GGCAGAGCUCAACCCAGCGUGGCAAAGUGGCUGUGGCUAGACUGAC [A14C C45A], the self-cleavage turned out to be 0.08.

On to GGCAGAGCUCAAUACAGCGUGGCAAAGUGGCUGUGGCUAGACUACC [C13U G44A], for which the self-cleavage was 0.1.

On to GGCAGAGCUCAAUACAGCGUGGCAAAGUGGCUGUGGCUAGACUCCC [C13U G44C], for which the self-cleavage came to 0.06.

As for GGCAGAGCUCAAUACAGCGUGGCAAAGUGGCUGUGGCUAGACUUCC [C13U G44U], the self-cleavage turned out to be 0.1.

With GGCAGAGCUCAACCCAGCGUGGCAAAGUGGCUGUGGCUAGACUGCG [A14C C46G], the self-cleavage came out at 0.08.

For the variant GGCAGAGCUCAACCCAGCGUGGCAAAGUGGCUGUGGCUAGACUGCU [A14C C46U], the self-cleavage was found to be 0.18.

As for GGCAGAGCUCAACCCAGCGUGGCAAAGUGGCUGUGGCUAGACUGCA [A14C C46A], the self-cleavage amounted to 0.13.

For GGCAGAGCUCAACCCAGCGUGGCAAAGUGCCUGUGGCUAGACUGCC [A14C G30C], the self-cleavage amounted to 0.07.

Regarding GGCAGAGCUCAACCCAGCGUGGCAAAGUGUCUGUGGCUAGACUGCC [A14C G30U], the self-cleavage is 0.07.

With GGCAGAGCUCAACCCAGCGUGGCAAAGUGACUGUGGCUAGACUGCC [A14C G30A], the self-cleavage was 0.21.

Regarding GGCAGAGCUCAACCCAGCGUGGCAAAGUGGCUGUGGCUAGACUCCC [A14C G44C], the self-cleavage was 0.13.

Take GGCAGAGCUCAACCCAGCGUGGCAAAGUGGCUGUGGCUAGACUACC [A14C G44A]: the self-cleavage is 0.07.

In the case of GGCAGAGCUCAACCCAGCGUGGCAAAGUGGCUGUGGCUAGACUUCC [A14C G44U], the self-cleavage is 0.07.

For GGCAGAGCUCAAUACAGCGUGGCAAAGUGGCUGCGGCUAGACUGCC [C13U U34C], the self-cleavage is 0.14.

As for GGCAGAGCUCAAUACAGCGUGGCAAAGUGGCUGAGGCUAGACUGCC [C13U U34A], the self-cleavage turned out to be 0.09.

For GGCAGAGCUCAAUACAGCGUGGCAAAGUGGCUGGGGCUAGACUGCC [C13U U34G], the self-cleavage came out at 0.05.

Turning to GGCAGAGCUCAACCCAGCGUGGCAAAGUAGCUGUGGCUAGACUGCC [A14C G29A], the self-cleavage came to 0.29.

With GGCAGAGCUCAACCCAGCGUGGCAAAGUUGCUGUGGCUAGACUGCC [A14C G29U], the self-cleavage was 0.13.

Regarding GGCAGAGCUCAACCCAGCGUGGCAAAGUCGCUGUGGCUAGACUGCC [A14C G29C], the self-cleavage amounted to 0.04.
